Test results: patent US6528312B1, “Use of G-actin for improving transfection of a polynucleotide into a cell” (Transgene S.A., priority 1998, dated 2003)

B1: IL-10: human recombinant IL-10 (Sigma) (protein, UniProt P22301 19-178, looked up)
Interleukin-10: SPGQGTQSENSCTHFPGNLPNMLRDLRDAFSRVKTFFQMKDQLDNLLLKESLLEDFKGYLGCQALSEMIQFYLEEVMPQAENQDPDIKAHVNSLGENLKTLRLRLRRCHRFLPCENKSKAVEQVKNAFNKLQEKGIYKAMSEFDIFINYIEAYMTMKIRN

How the values were obtained:
[1] = system: tibialis anterior muscles of mdx mice; assay: Intramuscular transfer of dystrophin plasmid pTG11025, dystrophin immunohistochemistry; assay type: in vivo, mouse; details: pTG11025 i.m. with adjuvant (IL-10 0.1 μg, DMSO 10% final, G-actin 10 μg), notexin 3 days before, 7 days after injection; mean +/- sem
Experimental: (§1) Plasmids are prepared according to Bischoff et al. (Analytical Biochemistry 254 (1997), 69-81). The tested interleukin-10s were mixed with the plasmid preparation (pTG11033: CMV promoter, β-globin intron, luciferase cassette; pTG11025: CMV promoter, β-globin intron, dystrophin cassette; both diluted in 0.9% NaCl), prior to intramuscular injection. 25 μg of plasmid are injected per muscle in 5 to 10 week-old C57BI/10 or mdx mice. The 2 tibialis anterior (right and left) muscles were injected (each muscle was considered as a sample, which means number of samples per condition=2×number of mice per condition).
(§2) One week after injection of the composition, mice were killed and the tibialis anterior muscles were retrieved and frozen. Based on the injected vector, either luciferase activity was determined in muscle extracts, or dystrophin expression was evaluated by immunohistochemistry.
Muscle samples were frozen in liquid nitrogen-cooled isopentane and stored at −80° C. […]
In a second experiment mdx mice were 3 times injected intramuscularly with pTG11025 (dystrophin) plus DMSO, G-actin and IL-10 after notexin-induced muscle regeneration. Plasmid-adjuvant injections were repeated 3 times in raw on a daily basis and dystrophin expression (immunohistochemistry) was evaluated 7 days after the last injection. […]

[2] = system: tibialis anterior muscles of C57BL/10 mice; assay: Intramuscular transfection of luciferase plasmid pTG11033, luciferase activity of injected muscles; assay type: in vivo, mouse; details: IL-10 0.01 and 0.1 μg + 25 μg pTG11033 per muscle, dose-dependent
Experimental: as §1, §2
Luciferase activity was quantified using a conventional measurement kit (Luciferase Assay System, Promega). […] Luciferase activity was expressed as number of RLU emitted per minute.
Proteins were measured on 10 μl samples using a VCA Protein Assay Kit (Pierce). […]
One week after injection of the vectors, the mice were killed and the tibialis anterior muscles were retrieved and frozen. Luciferase activity was determined on muscle extracts. […]

| Molecule | Number of dystrophin-positive fibers per cryosection [1] | increase of luciferase expression [2] [factor] |
| --- | --- | --- |
| C[S+](C)[O-] [DMSO, dimethylsulfoxide] | 37.8 +/− 5.5 |  |
| B1 | 21.7 +/− 1.9 | 3 |
